The text below walks through data of US20200283521A1.

The target in assay [1] is cynomolgus monkey C-KIT, full length, on CHO-K1 cells (cynomolgus monkey). Put plainly: cell-based or functional assay.
The target of assay [2] is human C-KIT, full length, on cells (human) (UniProt P10721). Put plainly: cell-based or functional assay.
The target in assay [3] is cynomolgus monkey C-KIT-Fc (cynomolgus monkey). Put plainly: HTRF epitope competition in solution; unlabelled h37M IgG1-3M titrated against terbium-labelled h37M IgG1 on cyno C-KIT-Fc. In general terms: TR-FRET usually uses a lanthanide donor and a delayed reading to cut background.
The target is the same in assay [4]. Put plainly: direct ELISA at 1 µg/ml.
The target is the same in assay [5]. Put plainly: HTRF competition vs Tb-h37M IgG1.
The target is the same in assay [6]. Put plainly: HTRF competition vs Tb-h37M IgG1. This is another data set of the same source.
The target is the same in assay [7]. Put plainly: direct titration ELISA on coated C-KIT-Fc, IgG1 format. (In general: An ELISA detects its analyte on a solid surface through an enzyme-linked reagent.)
The target is the same in assay [8]. Described as above. The source holds these as a separate data set.
In assay [9] the target is cynomolgus monkey C-KIT, full length, on CHO-K1 cells (cynomolgus monkey). Put plainly: flow cytometry, C-KIT-transfected CHO-K1 cells, IgG1 format. A general note: In flow cytometry, cells or beads pass a laser one at a time.

Like-named read-outs stand apart in the source and are kept apart here.

B1: h37M-IgG1-3M (antibody, V domains shown)
VH: QVQLVQSGAEVKKPGASVKLSCKASGYTFTDYYINWVRQAPGKGLEWIARIYPGSGNTYYNEKFKGRATLTADKSTSTAYMQLSSLRSEDTAVYFCARGVYYFDYWGQGTTVTVSS
VL: DIVMTQSPSSLSASVGDRVTITCKASQNVRTNVAWYQQKPGKAPKALIYSASYRYSGVPDRFTGSGSGTDFTLTISSLQPEDFADYFCQQYNSYPRTFGGGTKVEIK
As to B1, in assay [1], the Cyno C-KIT CHO FabZAP IC50 (pM) worked out at 7.82 pM. In assay [2], the Human C-KIT CHO FabZAP IC50 (pM) came out at 5.7 pM, the TF-1 FabZAP IC50 (pM) is 12.8 pM and the TF-1 proliferation IC50 amounted to 0.11 nM. For the same molecule, the IC50 (read off the curve) in assay [3] worked out at 0.02 µg/mL.

B2: humanized h37M, human IgG1 (antibody, V domains shown)
VH: B1 VH
VL: B1 VL
The term IC50 denotes the midpoint of a concentration-inhibition curve. Usually EC50 (read off the curve) stands for the midpoint of the concentration-response curve. Take B2: the OD450 nm in [4] was > 2 OD450 nm. In addition, the IC50 turned out to be 0.035 µg/mL in assay [5] and 0.036 µg/mL in [6]. The EC50 (read off the curve) is 0.1 µg/mL in [7], 0.2 µg/mL in assay [8] and 0.2 µg/mL in [9].
